Data published in patent US20200270362A1 (HARPOON THERAPEUTICS, published 2020).

Biological target: T1, TriTAC 75
T1 construct: Single-chain MSLN/albumin/CD3 trispecific protein, 6xHis
Test: Affinity measurement, method not stated; row 'Kd huCD3E' (faint print)

T1 sequence (chain, as listed by the source): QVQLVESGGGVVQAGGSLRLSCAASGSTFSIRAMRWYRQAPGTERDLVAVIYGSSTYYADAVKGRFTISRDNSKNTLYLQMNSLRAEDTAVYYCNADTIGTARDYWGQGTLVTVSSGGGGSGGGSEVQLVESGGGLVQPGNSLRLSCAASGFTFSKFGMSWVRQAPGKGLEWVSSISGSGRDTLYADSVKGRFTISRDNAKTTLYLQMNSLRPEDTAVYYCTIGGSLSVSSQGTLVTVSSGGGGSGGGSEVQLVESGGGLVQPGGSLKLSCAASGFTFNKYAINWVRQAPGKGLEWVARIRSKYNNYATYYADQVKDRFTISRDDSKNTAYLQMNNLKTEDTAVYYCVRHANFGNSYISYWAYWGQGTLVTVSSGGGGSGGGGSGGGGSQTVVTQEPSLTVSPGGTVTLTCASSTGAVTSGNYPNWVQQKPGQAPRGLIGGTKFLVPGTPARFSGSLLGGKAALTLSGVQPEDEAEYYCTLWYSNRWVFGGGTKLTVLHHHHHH

- Kd: 10 nM
B1: human CD3ε (receptor, UniProt P07766 23-126, looked up)
chain: DGNEEMGGITQTPYKVSISGTTVILTCPQYPGSEILWQHNDKNIGGDEDDKNIGSDEDHLSLKEFSELEQSGYYVCYPRGSKPEDANFYLYLRARVCENCMEMD
notes: also called human CD3c (so in the source)
